Results from PMC12049944.

Legend:
Assay in all cases: cross-linking; intermolecular disulfides between Cys residues introduced in helices 4 and 6 of APOA1 in rHDL; SDS-PAGE under reducing and oxidising conditions
[1] = target: APOA1 double Cys mutant K107C/H155C in rHDL (human)
[2] = target: APOA1 double Cys mutant M112C/M148C in rHDL (human)
[3] = target: APOA1 double Cys mutant Y100C/M162C in rHDL (human)
[4] = target: APOA1 double Cys mutant Y115C/E147C in rHDL (human)

## APOA1 double Cys mutant K107C/H155C in rHDL
[1]
  percent of APOA1 remaining monomeric (oxidising conditions): 10%

## APOA1 double Cys mutant M112C/M148C in rHDL
[2]
  percent dimer (oxidising conditions): 50%

## APOA1 double Cys mutant Y100C/M162C in rHDL (natural protein)
[3]
  percent of APOA1 remaining monomeric (oxidising conditions): 10%

## APOA1 double Cys mutant Y115C/E147C in rHDL
[4]
  percent of APOA1 remaining monomeric (oxidising conditions): 10%
